# Patent US6379959B1, “Metalocarboxypeptidase inhibitors and derived molecules used as antitumor agents” (Universitat Autonoma de Barcelona, priority 1996, dated 2002)
# Positions of bridges follow the written chain, without caps; N, C: chain ends. No end group written: not given here.
# What was measured:
# [1] = biological target: T1, EGF receptors of the Capan-1 cell line (Homo sapiens, UniProt P00533); test: Competitive binding with 125I-EGF to EGF receptors
# T1 construct: endogenous in cells; host or cells: Capan-1 (human pancreatic adenocarcinoma)
# Description: The detailed procedure that was employed is as follows:
# 1. 1.25×10^5 cells were seed per well in plates of 24 wells which were kept in culture for 48 h in DMEM FBS 10%. Triplicates were put for each concentration of competitor to be tested.
# 2. 24 h before the test, the full medium of the wells was replaced by 2 mL, per well, of DMEM without fetal serum.
# 3. The next day, the cells were washed, three times, with cold binding medium.
# 4. The cells were incubated with 70 μL of binding medium to which the concentrations of the competitor to be tested had been added. […] Afterwards, 40,000 cpm (350 pM) of ^125I-EFG were added. The incubation was done at 4° C. for 5 h.
# 5. The cells were washed quickly three times with 500 μL of the cold washing solution.
# 6. They were solubilized through incubation for 30 min at room temperature with the permeabilization solution.
# 7. The radioactivity in the suspension was determined with a gamma counter. To determine the unspecific binding, the value of unspecific binding was deducted from the total bounded radioactivity.
# From the test, the bounded radioactivity for each one of the tested concentrations of unlabeled competitor was determined. […] To determine the percentage, the following formula was applied: [formula]
# where B is the amount of specific binding in presence of a specific competitor concentration.
# With the aim of determining the kind of binding which is taking place, a pseudo-Hill or Logit-log representation (Pratt, W. B. and Taylor, P. “Principles of Drug Action. The Basis of Pharmacology”. Ed. Churchill Livingstone, N.Y., 1990) was carried out. The data of specific binding percentage are used to calculate the log(P/[100-P]), which is represented versus the logarithm of the competitor concentration.
# The resulting slope of the straight line is called pseudo-Hill coefficient.
# The fitting has been made using the programme Graphpad Inplot4. A non-linear fitting for competition for two binding sites is made. The logarithm of the competitor concentration has been represented versus the values of Logit-log (FIG. 25).
# From the previous fitting, the value of IC50, that is to say, the competitor concentration which inhibits 50% of the specific binding for the two types of binding was determined. Also, the percentage of the two types of binding sites was determined.
# [2] = tested on: human pancreatic adenocarcinoma cell line Capan-1; test: Growth curve of the cell line Capan-1 in presence or absence of PCI; assay type: cell-based; conditions: for Duplication time: DMEM + 10% FBS (control 85)
# Description: The growth curve of the human pancreatic adenocarcinoma cell line Capan-1 was determined by culturing the cells in medium DMEM supplemented with 10% of FBS (see Section 4 ..B.1.). Plates with wells were used, each with a surface of 10 cm^2 (Nunc, Denmark). The number of cells initially placed per well was 1×10^5, and changes of medium were made every four days, adding new PCI in the medium in the case of the cells treated with PCI.
# Three growth curves were determined (FIG. 10) in absence of PCI and in presence of PCI, in concentrations of 1 μg/mL and of 10 μg/mL. Initially, 45 replica-wells were placed for each treatment. After 15 days, three of the replica-wells of each treatment were taken and their number of cells counted by means of trypsinization and recount employing hemocytometer (for a description of the technique, see Section 4.B.1.). The results of the tests are shown in Table 13, which presents the duplication times calculated from the data.
# [3] = tested on: p53; test: Gene expression analysis by Northern transfer, p53 probe; assay type: cell-based, human; conditions: for beta counts, p53 probe: 12 days, Capan-1 (control 138)
# Description: To verify whether the PCI plays any role in signal transduction, studies of gene expression were carried out by Northern transfer. The probes were: β2-microglobulin, p53 and trypsin. The β2-microglobulin is a constitutive gene that is used as a sample loading control in the gel. p53 is a transcription factor which, among other functions, controls the state of the genomic DNA and the cell cycle (Bates, S. & Vousden, K. H. (1996) Curr. Opin. Genet. Develop., 6: 12-19). If the DNA is damaged, p53 induces its repair and, if it is excessively damaged, it provokes programmed cellular death (apoptosis). Trypsin is a marker of pancreatic cells of the acinar type. The trypsin is not expressed by all the tumoral cells and it is believed that it is expressed by the cells with metastatic power and/or invasive power (Fernández, E. et al., (1994) Cancer, 73: 2285-2295). The probes employed are described as follows:
# In the first place, 3×10^6 cells of the human pancreatic adenocarcinoma cell line Capan-1 were placed in each one of the 12 flasks of 150 cm^2. […] They were maintained in culture for 12 days period, changing their medium every 4 days, adding fresh PCI. Once the treatment was completed, the cells were trypsinized and the sediment of the cells was kept at −80° C. Afterwards, the extraction of the RNA was carried out.
# The quantifying of the hybridized filters with the respective probes was done using a Betascope 601 blot Analyzer counter (Betagen, USA). The counting time was 45 min for the hybridized filter with the probe p53 and β2-microglobuline and 2 h for the trypsin probe.
# Assuming that the counts of the β2-Microglobuline are an indication of the total amount of poly(A^+) RNA, the data may be standardized as a percentage of counts of the band compared to the β2-microglobuline counts of the same cells, giving a value which depends on the abundance of the specific mRNA in relation to the total of mRNA.
# [4] = [PCI] nM 1, 350 pM 125I-EGF, 5 h, 4° C.
substance,measurement,setting,value
"PCI: potato carboxypeptidase inhibitor, isoform IIa, obtained by recombinant DNA techniques in E. coli (SEQ ID NO.2) (EQHADPICNKPCKTHDDCSGAWFCQACWNSARTCGPYVG; disulfide 12-27, 18-34, 8-24)",% Receptors,[1]; High affinity binding site,99.7%
same,Log (P/[100-P]),[1]; Log [PCI] M −4.33,−0.272
same,Log (P/[100-P]),[1]; Log [PCI] M −4.93,−0.2246
same,Log (P/[100-P]),[1]; Log [PCI] M −5.83,−0.1873
same,Log (P/[100-P]),[1]; Log [PCI] M −6.63,"0,605"
same,Log (P/[100-P]),[1]; Log [PCI] M −7.63,0.713
same,Log (P/[100-P]),[1]; Log [PCI] M −8.63,1.205
same,Log (P/[100-P]),[1]; Log [PCI] M −9,1.99
same,% Receptors,[1]; Low affinity binding site,0.3%
same,Percentage of specific binding,[1]; [4],99%
same,Specific binding (cpm),[1]; [4],1597 cpm
same,Percentage of specific binding,[1]; [PCI] nM 2.32,94.14%
same,Specific binding (cpm),[1]; [PCI] nM 2.32,1503.5 cpm
same,Percentage of specific binding,[1]; [PCI] nM 23.2,83.78%
same,Specific binding (cpm),[1]; [PCI] nM 23.2,1307 cpm
same,Percentage of specific binding,[1]; [PCI] nM 232.8,80.13%
same,Specific binding (cpm),[1]; [PCI] nM 232.8,1250 cpm
same,Percentage of specific binding,[1]; [PCI] nM 2328.2,39.38%
same,Specific binding (cpm),[1]; [PCI] nM 2328.2,621.5 cpm
same,Percentage of specific binding,[1]; [PCI] nM 11641,37.35%
same,Specific binding (cpm),[1]; [PCI] nM 11641,582.6 cpm
same,Percentage of specific binding,[1]; [PCI] nM 46566,34.83%
same,Specific binding (cpm),[1]; [PCI] nM 46566,543.33 cpm
same,"binding capacity to the receptor of high affinity, times inferior to that of the EGF",[1]; high affinity receptor,6 times
same,density reached by the stationary stage compared with the control cells,[2]; 10 μg/mL of PCI,a half
same,Duplication time,[2]; Treated with 1 mg/mL,90 h
same,Duplication time,[2]; Treated with 10 mg/mL,130 h
same,higher transcription of p53 in relation to the control group cells (treatment/control),[3]; 1 mg/mL PCI,2.8 times
same,p53/b2 (counts of one band in relation to those of β2-microglobuline),[3]; 1 mg/mL PCI (control 0.1445),0.4040
same,"beta counts, p53 probe",[3]; 1 mg/mL PCI,882
same,higher transcription of p53 in relation to the control group cells (treatment/control),[3]; 10 mg/mL PCI,1.2 times
same,"beta counts, p53 probe",[3]; 10 mg/mL PCI,1111
